Measured values published in the Human Domainome abundance scans (Beltran et al. 2025).
± gives the uncertainty stated by the source.

B1: COUP transcription factor 1, residues 83 to 159; numbered along this chain, P10589 (parent)
chain: HIECVVCGDKSSGKHYGQFTCEGCKSFFKRSVRRNLTYTCRANRNCPIDQHHRNQCQYCRLKKCLKVGMRREAVQRG

Variants of: B1
Assay: abundance fitness (aPCA) (normalised: wild type 0, dead -1); higher = more abundant; growth selection in yeast, the domain comes from the species named
Settings: Homo sapiens

| Variant | abundance fitness |
| --- | --- |
| C7I | -0.912 ± 0.41 |
| C7Y | -0.268 ± 0.2 |
| C7E | -0.659 ± 0.1 |
| C7G | -0.733 ± 0.069 |
| C7S | -0.803 ± 0.11 |
| C7T | -0.95 ± 0.25 |
| Y16P | -0.355 ± 0.14 |
| Y16D | 0.111 ± 0.09 |
| Y16N | -0.539 ± 0.2 |
| V74F | -0.175 ± 0.06 |
| V74N | -0.061 ± 0.065 |
| V74Y | -0.353 ± 0.079 |
| Q18E | 0.143 ± 0.054 |
| Q18N | -0.345 ± 0.25 |
| Q18D | 0.08 ± 0.13 |
| F19A | -0.101 ± 0.071 |
| F19R | -0.098 ± 0.052 |
| F19W | -0.01 ± 0.06 |
| H1K | 0.374 ± 0.25 |
| H1D | 0.6 ± 0.17 |
| H1G | 0.277 ± 0.087 |
| H1L | 0.03 ± 0.14 |
| H1N | 0.07 ± 0.29 |
| N45Q | 0.13 ± 0.075 |

| Variant | abundance fitness |
| --- | --- |
| N45K | -0.265 ± 0.2 |
| N45W | -0.049 ± 0.096 |
| N45G | -0.004 ± 0.045 |
| N45A | -0.076 ± 0.063 |
| N45P | 0.015 ± 0.16 |
| N45C | -0.202 ± 0.16 |
| N45R | 0.067 ± 0.05 |
| K14T | -0.113 ± 0.31 |
| K14L | 0.111 ± 0.08 |
| C64F | -0.903 ± 0.24 |
| G17D | -0.072 ± 0.067 |
| G17R | -0.421 ± 0.07 |
| G17I | -0.515 ± 0.28 |
| G17L | -0.437 ± 0.086 |
| G17H | -0.459 ± 0.24 |
| C59D | -0.729 ± 0.14 |
| C59E | -0.696 ± 0.078 |
| C59V | -0.729 ± 0.068 |
| C59L | -0.934 ± 0.09 |
| C59G | -0.789 ± 0.055 |
| L36D | -0.232 ± 0.22 |
| L36C | -0.206 ± 0.14 |
| G77C | -0.096 ± 0.069 |
| G77V | -0.041 ± 0.043 |

| Variant | abundance fitness |
| --- | --- |
| G77Q | 0.304 ± 0.075 |
| G77W | -0.23 ± 0.074 |
| G77R | -0.058 ± 0.046 |
| G77Y | -0.257 ± 0.14 |
| G77D | 0.117 ± 0.093 |
| G77I | -0.042 ± 0.11 |
| G77M | -0.017 ± 0.12 |
| N54S | -0.033 ± 0.051 |
| N54G | -0.153 ± 0.039 |
| K29S | -0.058 ± 0.051 |
| K29A | -0.079 ± 0.042 |
| K29R | -0.181 ± 0.04 |
| K29C | -0.705 ± 0.2 |
| K29P | -0.534 ± 0.14 |
| K29G | 0.068 ± 0.031 |
| H15Q | -0.052 ± 0.17 |
| H15L | 0.001 ± 0.14 |
| H15W | 0.196 ± 0.14 |
| H15S | -0.212 ± 0.12 |
| R60A | -0.088 ± 0.038 |
| R60C | -0.007 ± 0.052 |
| R60W | 0.139 ± 0.038 |
| R60N | -0.416 ± 0.1 |
| R60I | -0.227 ± 0.076 |

| Variant | abundance fitness |
| --- | --- |
| I48Y | -0.518 ± 0.12 |
| I48E | -0.23 ± 0.092 |
| I48K | -0.661 ± 0.14 |
| I48W | -0.283 ± 0.063 |
| I48H | -0.93 ± 0.22 |
| I48D | -0.302 ± 0.11 |
| I48S | -0.286 ± 0.052 |
| M69I | -0.484 ± 0.099 |
| M69R | -0.737 ± 0.058 |
| M69P | -0.661 ± 0.097 |
| M69C | -0.38 ± 0.11 |
| M69L | -0.027 ± 0.035 |
| M69G | -0.711 ± 0.053 |
| P47C | -0.206 ± 0.085 |
| P47W | -0.217 ± 0.062 |
| D9W | -0.14 ± 0.076 |
| D9F | -0.045 ± 0.29 |
| D9N | -0.099 ± 0.15 |
| G23D | 0.418 ± 0.14 |
| G23A | -0.153 ± 0.14 |
| G23Q | 0.031 ± 0.12 |
| G23Y | 0.152 ± 0.45 |
| G23H | 0.287 ± 0.17 |
| G23F | 0.044 ± 0.43 |

| Variant | abundance fitness |
| --- | --- |
| G23C | 0.001 ± 0.36 |
| G23S | -0.174 ± 0.23 |
| G23L | -0.544 ± 0.36 |
| G68C | -0.597 ± 0.094 |
| G68V | -0.671 ± 0.059 |
| G68M | -0.624 ± 0.084 |
| G68D | -0.728 ± 0.11 |
| G68L | -0.572 ± 0.064 |
| G68P | -0.939 ± 0.15 |
| C24Q | -1.04 ± 0.23 |
| C24L | -0.841 ± 0.11 |
| F28V | -0.807 ± 0.098 |
| F28R | -0.698 ± 0.073 |
| N43M | -0.222 ± 0.13 |
| R70F | 0.002 ± 0.12 |
| R70D | 0.163 ± 0.052 |
| R70S | 0.144 ± 0.039 |
| R70I | 0.046 ± 0.16 |
| E22I | -0.495 ± 0.21 |
| E22Y | -0.342 ± 0.19 |
| R44H | -0.003 ± 0.096 |
| R44T | 0.054 ± 0.055 |
| R44F | -0.207 ± 0.11 |
| R44S | -0.024 ± 0.043 |

| Variant | abundance fitness |
| --- | --- |
| R44P | -0.405 ± 0.08 |
| V67E | 0.013 ± 0.04 |
| V67D | -0.398 ± 0.11 |
| V67R | -0.16 ± 0.037 |
| V5C | -0.027 ± 0.13 |
| V5A | 0.228 ± 0.084 |
| V5L | 0.192 ± 0.093 |
| V5P | 0.381 ± 0.32 |
| S26P | -0.812 ± 0.34 |
| S26H | -0.137 ± 0.19 |
| S26K | 0.321 ± 0.15 |
| S26T | 0.139 ± 0.1 |
| S26L | -0.035 ± 0.11 |
| T37N | 0.081 ± 0.057 |
| T37R | 0.092 ± 0.05 |
| K66T | 0.025 ± 0.046 |
| K66R | -0.021 ± 0.034 |
| K66S | 0.074 ± 0.036 |
| K66G | -0.09 ± 0.034 |
| K66H | -0.103 ± 0.068 |
| K66I | -0.079 ± 0.061 |
| K66P | -0.785 ± 0.11 |
| K66Y | -0.033 ± 0.058 |
| K66V | 0.041 ± 0.035 |

| Variant | abundance fitness |
| --- | --- |
| K66A | 0.003 ± 0.037 |
| K66L | -0.032 ± 0.038 |
| A73D | 0.112 ± 0.054 |
| A73T | -0.034 ± 0.048 |
| A73F | 0.02 ± 0.061 |
| A73M | -0.065 ± 0.045 |
| G13A | 0.171 ± 0.04 |
| G13D | 0.053 ± 0.068 |
| G13H | -0.306 ± 0.082 |
| G13C | -0.95 ± 0.29 |
| D49W | -0.13 ± 0.069 |
| D49G | -0.108 ± 0.046 |
| D49H | -0.269 ± 0.075 |
| D49Q | -0.083 ± 0.078 |
| D49E | -0.064 ± 0.076 |
| D49C | -0.726 ± 0.13 |
| I2D | 0.065 ± 0.27 |
| Q50S | -0.086 ± 0.054 |
| Q50G | -0.149 ± 0.035 |
| A42Y | 0.109 ± 0.22 |
| A42E | 0.084 ± 0.078 |
| A42F | -0.282 ± 0.3 |
| A42Q | 0.239 ± 0.089 |
